Test results taken from publication PMC2680271.

What was measured:
[1] = system: KorA WT (IncP-1 plasmid (expressed in E. coli)); assay: EMSA
[2] = system: KorA Y84A (IncP-1 plasmid (expressed in E. coli)); assay: EMSA

With “korAp fragment (220 bp, EcoRI-cut pSTM12)” the K half [1] was 300 nM and the K half [2] was 200 nM.
